Experimental data reported in paper PMC9613975.

Assays:
[1] = molecular target: PacII S subunit (HsdS), full length, C-terminal 6His tag (assembly analysis) (Pseudomonas alcaligenes NEB585); assay: SEC; only two subunits co-expressed in E. coli (M1 with S, or M2 with S), purified by the same strategy as the wild-type PacII MTase; SEC
[2] = molecular target: PacII S subunit (HsdS), full length, C-terminal 6His tag (assembly analysis) (Pseudomonas alcaligenes NEB585); assay: SEC; S subunit alone on size-exclusion chromatography; monomer-dimer equilibrium

Row | Substance | stoichiometry N [1] [M1 per S] | stoichiometry N [2]
1 | PacII M1 subunit (HsdM1), full length, construct without the 6His-SUMO tag (assembly analysis) (natural protein) | 1 | 
2 | PacII S subunit (HsdS), full length, C-terminal 6His tag (assembly analysis) (natural protein) |  | 2
